T1: human EphA3 extracellular region-SEAP-His protein (human, UniProt P29320 21-541)
T1 construct: extracellular domain; also called hEphA3-SEAP-His
T1 sequence (looked up): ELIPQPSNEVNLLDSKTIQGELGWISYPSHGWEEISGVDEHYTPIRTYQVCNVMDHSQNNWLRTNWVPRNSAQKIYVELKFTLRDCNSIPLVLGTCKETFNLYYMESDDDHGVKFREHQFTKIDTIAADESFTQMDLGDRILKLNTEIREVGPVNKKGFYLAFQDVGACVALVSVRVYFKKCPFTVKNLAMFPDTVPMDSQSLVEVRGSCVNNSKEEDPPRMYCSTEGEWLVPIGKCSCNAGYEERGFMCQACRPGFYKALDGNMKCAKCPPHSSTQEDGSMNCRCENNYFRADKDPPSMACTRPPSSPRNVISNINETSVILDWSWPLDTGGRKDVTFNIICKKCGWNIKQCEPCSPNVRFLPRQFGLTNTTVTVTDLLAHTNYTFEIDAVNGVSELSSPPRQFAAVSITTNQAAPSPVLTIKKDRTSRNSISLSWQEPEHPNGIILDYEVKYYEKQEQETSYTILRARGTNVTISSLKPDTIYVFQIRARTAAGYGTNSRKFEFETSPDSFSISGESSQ

T2: human EphA10 extracellular region-SEAP-His protein (human, UniProt Q5JZY3 34-565)
T2 construct: extracellular domain; also called hEphA10-SEAP-His
T2 sequence (looked up): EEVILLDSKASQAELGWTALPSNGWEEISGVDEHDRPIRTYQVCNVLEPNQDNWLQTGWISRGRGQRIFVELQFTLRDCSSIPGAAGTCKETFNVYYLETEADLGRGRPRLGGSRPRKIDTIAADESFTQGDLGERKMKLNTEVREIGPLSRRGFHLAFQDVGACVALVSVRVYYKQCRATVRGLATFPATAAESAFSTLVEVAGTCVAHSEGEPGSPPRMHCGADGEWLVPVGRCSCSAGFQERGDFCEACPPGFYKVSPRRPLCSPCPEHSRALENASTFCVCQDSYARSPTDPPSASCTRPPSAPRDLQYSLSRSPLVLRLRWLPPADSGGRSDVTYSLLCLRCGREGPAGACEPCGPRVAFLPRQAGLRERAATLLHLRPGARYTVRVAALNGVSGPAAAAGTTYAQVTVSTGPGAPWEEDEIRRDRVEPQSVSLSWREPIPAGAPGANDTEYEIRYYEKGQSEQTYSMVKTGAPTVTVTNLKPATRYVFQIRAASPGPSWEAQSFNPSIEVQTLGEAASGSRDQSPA

T3: human EphB3 extracellular region-SEAP-His protein (human, UniProt P54753 34-559)
T3 construct: extracellular domain; also called hEphB3-SEAP-His
T3 sequence (looked up): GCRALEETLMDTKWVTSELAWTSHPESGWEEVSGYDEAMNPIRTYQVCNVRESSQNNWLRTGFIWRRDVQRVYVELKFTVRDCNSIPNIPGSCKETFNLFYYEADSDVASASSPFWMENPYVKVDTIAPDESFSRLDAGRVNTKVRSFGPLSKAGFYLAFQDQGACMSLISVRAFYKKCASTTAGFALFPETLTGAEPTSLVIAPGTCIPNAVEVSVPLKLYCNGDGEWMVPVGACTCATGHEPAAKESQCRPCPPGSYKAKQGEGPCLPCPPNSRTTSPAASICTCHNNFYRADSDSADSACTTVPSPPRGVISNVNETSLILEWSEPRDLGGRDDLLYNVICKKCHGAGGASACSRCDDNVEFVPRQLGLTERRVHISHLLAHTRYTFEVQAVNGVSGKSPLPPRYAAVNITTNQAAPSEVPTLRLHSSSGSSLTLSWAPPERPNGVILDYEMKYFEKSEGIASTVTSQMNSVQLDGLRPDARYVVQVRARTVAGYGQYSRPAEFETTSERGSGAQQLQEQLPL

T4: human EphB4 extracellular region-SEAP-His protein (human, UniProt P54760 16-539)
T4 construct: extracellular domain; also called hEphB4-SEAP-His
T4 sequence (looked up): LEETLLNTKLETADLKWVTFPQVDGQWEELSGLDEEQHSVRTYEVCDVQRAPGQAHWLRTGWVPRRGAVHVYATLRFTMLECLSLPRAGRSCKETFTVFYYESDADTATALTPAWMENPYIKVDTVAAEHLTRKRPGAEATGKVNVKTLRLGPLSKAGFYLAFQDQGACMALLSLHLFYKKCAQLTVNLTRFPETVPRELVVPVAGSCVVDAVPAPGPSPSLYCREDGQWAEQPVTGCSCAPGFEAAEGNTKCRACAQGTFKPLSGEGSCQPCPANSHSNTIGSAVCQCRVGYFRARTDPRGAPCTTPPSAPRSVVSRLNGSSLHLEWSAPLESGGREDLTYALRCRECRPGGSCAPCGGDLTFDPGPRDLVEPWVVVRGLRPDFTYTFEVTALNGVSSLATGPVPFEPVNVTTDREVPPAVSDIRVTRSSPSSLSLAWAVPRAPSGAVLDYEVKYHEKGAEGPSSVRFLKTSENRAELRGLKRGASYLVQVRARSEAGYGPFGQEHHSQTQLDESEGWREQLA


Tests used:
Assay in all cases: ELISA
SEAP-His = SEAP-His (UniProt P05187 23-511)
[1] = target: T1, human EphA3 extracellular …
[2] = target: T2, human EphA10 extracellular …
[3] = target: T3, human EphB3 extracellular …
[4] = target: T4, human EphB4 extracellular …

Chain of SEAP-His (P05187 23-511): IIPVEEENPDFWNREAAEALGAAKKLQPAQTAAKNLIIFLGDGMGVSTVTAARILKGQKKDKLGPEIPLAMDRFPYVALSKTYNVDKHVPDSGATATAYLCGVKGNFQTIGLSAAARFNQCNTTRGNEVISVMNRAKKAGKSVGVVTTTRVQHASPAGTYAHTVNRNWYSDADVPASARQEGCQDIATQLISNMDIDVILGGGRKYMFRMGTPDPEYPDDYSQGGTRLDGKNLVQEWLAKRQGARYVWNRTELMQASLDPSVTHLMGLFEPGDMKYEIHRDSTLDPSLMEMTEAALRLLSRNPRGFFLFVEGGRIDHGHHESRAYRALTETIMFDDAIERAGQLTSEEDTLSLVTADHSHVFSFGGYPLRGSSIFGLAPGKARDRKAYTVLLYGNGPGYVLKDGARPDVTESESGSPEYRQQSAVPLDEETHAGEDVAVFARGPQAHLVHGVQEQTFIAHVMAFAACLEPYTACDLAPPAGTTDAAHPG

Binder	A450 as % of hEphA4-SEAP-His (SEAP-His) [%]	A450 as % of hEphA4-SEAP-His [1] [%]	A450 as % of hEphA4-SEAP-His [2] [%]	A450 as % of hEphA4-SEAP-His [3] [%]	A450 as % of hEphA4-SEAP-His [4] [%]
humanized antibody No. 78 (antibody, human IgG1, kappa, human Ig kappa; also called L1-4/HK2) heavy: QVQLVQSGSELKKPGASVKVSCKASGYTFTDYSMHWVRQAPGQGLKWMGWINTETGEPTYADDFKGRFVFSLDTSVSTAYLQISSLKAEDTAVYYCARIPLYYYGSRYWYFDVWGQGTTVTVSSASTKGPSVFPLAPSSKSTSGGTAALGCLVKDYFPEPVTVSWNSGALTSGVHTFPAVLQSSGLYSLSSVVTVPSSSLGTQTYICNVNHKPSNTKVDKRVEPKSCDKTHTCPPCPAPPAAAPSVFLFPPKPKDTLMISRTPEVTCVVVDVSHEDPEVQFNWYVDGVEVHNAKTKPREEQFNSTFRVVSVLTVVHQDWLNGKEYKCKVSNKGLPAPIEKTISKTKGQPREPQVYTLPPSREEMTKNQVSLTCLVKGFYPSDIAVEWESNGQPENNYKTTPPMLDSDGSFFLYSKLTVDKSRWQQGNVFSCSVMHEALHNHYTQKSLSLSPG light: DIQMTQSPSSLSASVGDRVTITCRASENIYRNLAWYQQKPGKAPKLLVYAATNLADGVPSRFSGSGSGTDYTLTISSLQPEDFATYYCQHFWGTPWTFGQGTKVEIKRTVAAPSVFIFPPSDEQLKSGTASVVCLLNNFYPREAKVQWKVDNALQSGNSQESVTEQDSKDSTYSLSSTLTLSKADYEKHKVYACEVTHQGLSSPVTKSFNRGEC	5.3	5.1	5.2	5.2	5.1
humanized antibody No. 81 (antibody, human IgG1, kappa, human Ig kappa; also called L1-5/HA1) heavy: QVQLVQSGSELKKPGASVKVSCKASGYTFTDYSMHWVRQAPGQGLEWMGWINTETGEPTYAQGFTGRFVFSLDTSVSTAYLQISSLKAEDTAVYYCARIPLYYYGSRYWYFDVWGQGTTVTVSSASTKGPSVFPLAPSSKSTSGGTAALGCLVKDYFPEPVTVSWNSGALTSGVHTFPAVLQSSGLYSLSSVVTVPSSSLGTQTYICNVNHKPSNTKVDKRVEPKSCDKTHTCPPCPAPPAAAPSVFLFPPKPKDTLMISRTPEVTCVVVDVSHEDPEVQFNWYVDGVEVHNAKTKPREEQFNSTFRVVSVLTVVHQDWLNGKEYKCKVSNKGLPAPIEKTISKTKGQPREPQVYTLPPSREEMTKNQVSLTCLVKGFYPSDIAVEWESNGQPENNYKTTPPMLDSDGSFFLYSKLTVDKSRWQQGNVFSCSVMHEALHNHYTQKSLSLSPG light: DIQMTQSPSSLSASVGDRVTITCRASENIYRNLAWYQQKPGKAPKLLLYAATNLADGVPSRFSGSGSGTDYTLTISSLQSEDFATYYCQHFWGTPWTFGQGTKVEIKRTVAAPSVFIFPPSDEQLKSGTASVVCLLNNFYPREAKVQWKVDNALQSGNSQESVTEQDSKDSTYSLSSTLTLSKADYEKHKVYACEVTHQGLSSPVTKSFNRGEC	5	5	4.8	4.9	5
humanized antibody No. 83 (antibody, human IgG1, kappa, human Ig kappa; also called L1-5/HA4) heavy: QIQLVQSGSELKKPGASVKVSCKASGYTFTDYSMHWVRQAPGQGLKWMGWINTETGEPTYAQGFTGRFVFSLDTSVSTAYLQISSLKAEDTAVYYCARIPLYYYGSRYWYFDVWGQGTTVTVSSASTKGPSVFPLAPSSKSTSGGTAALGCLVKDYFPEPVTVSWNSGALTSGVHTFPAVLQSSGLYSLSSVVTVPSSSLGTQTYICNVNHKPSNTKVDKRVEPKSCDKTHTCPPCPAPPAAAPSVFLFPPKPKDTLMISRTPEVTCVVVDVSHEDPEVQFNWYVDGVEVHNAKTKPREEQFNSTFRVVSVLTVVHQDWLNGKEYKCKVSNKGLPAPIEKTISKTKGQPREPQVYTLPPSREEMTKNQVSLTCLVKGFYPSDIAVEWESNGQPENNYKTTPPMLDSDGSFFLYSKLTVDKSRWQQGNVFSCSVMHEALHNHYTQKSLSLSPG light: DIQMTQSPSSLSASVGDRVTITCRASENIYRNLAWYQQKPGKAPKLLLYAATNLADGVPSRFSGSGSGTDYTLTISSLQSEDFATYYCQHFWGTPWTFGQGTKVEIKRTVAAPSVFIFPPSDEQLKSGTASVVCLLNNFYPREAKVQWKVDNALQSGNSQESVTEQDSKDSTYSLSSTLTLSKADYEKHKVYACEVTHQGLSSPVTKSFNRGEC	6.5	5.7	5.6	5.7	5.7
humanized antibody No. 82 (antibody, human IgG1, kappa, human Ig kappa; also called L1-5/HA2) heavy: QVQLVQSGSELKKPGASVKVSCKASGYTFTDYSMHWVRQAPGQGLKWMGWINTETGEPTYAQGFTGRFVFSLDTSVSTAYLQISSLKAEDTAVYYCARIPLYYYGSRYWYFDVWGQGTTVTVSSASTKGPSVFPLAPSSKSTSGGTAALGCLVKDYFPEPVTVSWNSGALTSGVHTFPAVLQSSGLYSLSSVVTVPSSSLGTQTYICNVNHKPSNTKVDKRVEPKSCDKTHTCPPCPAPPAAAPSVFLFPPKPKDTLMISRTPEVTCVVVDVSHEDPEVQFNWYVDGVEVHNAKTKPREEQFNSTFRVVSVLTVVHQDWLNGKEYKCKVSNKGLPAPIEKTISKTKGQPREPQVYTLPPSREEMTKNQVSLTCLVKGFYPSDIAVEWESNGQPENNYKTTPPMLDSDGSFFLYSKLTVDKSRWQQGNVFSCSVMHEALHNHYTQKSLSLSPG light: DIQMTQSPSSLSASVGDRVTITCRASENIYRNLAWYQQKPGKAPKLLLYAATNLADGVPSRFSGSGSGTDYTLTISSLQSEDFATYYCQHFWGTPWTFGQGTKVEIKRTVAAPSVFIFPPSDEQLKSGTASVVCLLNNFYPREAKVQWKVDNALQSGNSQESVTEQDSKDSTYSLSSTLTLSKADYEKHKVYACEVTHQGLSSPVTKSFNRGEC	5.9	5.4	5.4	5.6	5.7
humanized antibody No. 84 (antibody, human IgG1, kappa, human Ig kappa; also called L1-5/HK1) heavy: QVQLVQSGSELKKPGASVKVSCKASGYTFTDYSMHWVRQAPGQGLEWMGWINTETGEPTYADDFKGRFVFSLDTSVSTAYLQISSLKAEDTAVYYCARIPLYYYGSRYWYFDVWGQGTTVTVSSASTKGPSVFPLAPSSKSTSGGTAALGCLVKDYFPEPVTVSWNSGALTSGVHTFPAVLQSSGLYSLSSVVTVPSSSLGTQTYICNVNHKPSNTKVDKRVEPKSCDKTHTCPPCPAPPAAAPSVFLFPPKPKDTLMISRTPEVTCVVVDVSHEDPEVQFNWYVDGVEVHNAKTKPREEQFNSTFRVVSVLTVVHQDWLNGKEYKCKVSNKGLPAPIEKTISKTKGQPREPQVYTLPPSREEMTKNQVSLTCLVKGFYPSDIAVEWESNGQPENNYKTTPPMLDSDGSFFLYSKLTVDKSRWQQGNVFSCSVMHEALHNHYTQKSLSLSPG light: DIQMTQSPSSLSASVGDRVTITCRASENIYRNLAWYQQKPGKAPKLLLYAATNLADGVPSRFSGSGSGTDYTLTISSLQSEDFATYYCQHFWGTPWTFGQGTKVEIKRTVAAPSVFIFPPSDEQLKSGTASVVCLLNNFYPREAKVQWKVDNALQSGNSQESVTEQDSKDSTYSLSSTLTLSKADYEKHKVYACEVTHQGLSSPVTKSFNRGEC	5.1	4.9	5.1	4.8	5.4

From patent publication US20190077860A1 (EISAI R AND D MANAGEMENT, published 2019)
